# In paper PMC9691366, “Modulating the pharmacokinetic profile of Actinium-225-labeled macropa-derived radioconjugates by dual targeting of PSMA and albumin” (Theranostics, 2022):
# Columns and labels:
# [1] = Ex vivo biodistribution in LNCaP tumor-bearing SCID mice; details: mouse, in vivo, 50 kBq per mouse; for tissue uptake at 1 h: 1 h p.i.; for tissue uptake at 4 h: 4 h p.i.; for tissue uptake at 24 h: 24 h p.i.; for tissue uptake at 48 h: 48 h p.i.; for tissue uptake at 72 h: 72 h p.i.; for tissue uptake at 120 h: 120 h p.i.; for tissue uptake at 168 h: 168 h p.i.
# Source text: (§1) The biodistribution experiments with [^225Ac]Ac-mcp-M-alb-PSMA and [^225Ac]Ac-mcp-D-alb-PSMA were accomplished using LNCaP tumor-bearing mice. The SCID male mice (ENVIGO, Indianapolis, IN, USA) 8 weeks old were subcutaneously xenografted into the right flank with 10∙10^6 LNCaP cells (ATCC, Manassas, VA, USA) mixed with Matrigel Matrix (Corning Inc., Corning, NY, USA) at a 1:1 ratio. The tumor growth was periodically monitored by caliper-based measurements. When the tumor volume reached 200-300 mm^3 (i.e., approx. 6 weeks after the xenografting of the cells), the mice were enrolled in the biodistribution study. All experimental animals were housed in a specific-pathogen-free animal facility and all experiments with animals were performed in accordance with appropriate legal norms (Czech Law No. 246/1992) and with the approval of the Ministry of Education, Youth and Sports (MSMT-35035/2019-3) and approval of the Ethical committee of Faculty of Medicine and Dentistry, Palacky University in Olomouc. The number of animals was reduced as much as possible (n = 3-4 per group and time point) for in vivo experiments in order to strictly follow 3Rs principle.
# (§2) For the purpose of biodistribution studies, the ^225Ac-radioconjugates were diluted with saline. The diluted ^225Ac-radioconjugates were applied retro-orbitally (r.o.) to the experimental animals at a dose of 50 kBq per mouse corresponding to 10 pmol of the PSMA-inhibitor. The radioactivity application was carried out under 2% isoflurane anesthesia (FORANE, Abbott Laboratories, Abbott Park, IL, USA) to minimize animal suffering and to prevent animal motion. The mice were sacrificed by cervical dislocation 1, 4, 24, 48, 72, and 120 h (plus 168 h for [^225Ac]Ac-mcp-D-alb-PSMA) post-injection and organs of interest (blood, spleen, pancreas, stomach, intestine, kidneys, liver, heart, lungs, muscle, bone, and tumor) were collected. The organs were weighed, and their radioactivity was counted on an automatic gamma counter. The uptake of the ^225Ac-radioconjugates was expressed as a percentage of injected dose per gram of the corresponding organ (%ID/g). The area under the curve (AUC) was determined for both tested PSMA ligands from non-decay-corrected data obtained from the ex vivo biodistribution data of the tumors, kidneys, and blood.
# [2] = system: LNCaP tumor-bearing SCID mice; experiment: as above
# Source text: as §1, §2
# [3] = non-decay corrected biodistribution data, mean ± SD
smiles,measurement,setting,value
"O=C(O)CC[C@H](NC(=O)N[C@@H](CCCCNC(=O)[C@H](Cc1ccc2ccccc2c1)NC(=O)[C@H]1CC[C@H](CNC(=O)[C@H](CCCCn2cc(COc3cc(CN4CCOCCOCCN(Cc5cc(OCc6cn(CCCC[C@H](NC(=O)[C@H](CCC(=O)O)NC(=O)CCCc7ccc(I)cc7)C(=O)NC[C@H]7CC[C@H](C(=O)N[C@@H](Cc8ccc9ccccc9c8)C(=O)NCCCC[C@H](NC(=O)N[C@@H](CCC(=O)O)C(=O)O)C(=O)O)CC7)nn6)cc(C(=O)O)n5)CCOCCOCC4)nc(C(=O)O)c3)nn2)NC(=O)[C@H](CCC(=O)O)NC(=O)CCCc2ccc(I)cc2)CC1)C(=O)O)C(=O)O [[^225Ac]Ac-mcp-D-alb-PSMA, metal not drawn]",tissue to tissue ratio,"[1]; male, SCID, total radioactivity",1420
same,tissue uptake at 1 h,[1]; blood uptake (AV),8.44 %ID/g
same,tissue uptake at 4 h,[1]; blood uptake (AV),6.5 %ID/g
same,tissue uptake at 24 h,[1]; blood uptake (AV),2.85 %ID/g
same,tissue uptake at 48 h,[1]; blood uptake (AV),1.22 %ID/g
same,tissue uptake at 72 h,[1]; blood uptake (AV),0.7 %ID/g
same,tissue uptake at 120 h,[1]; blood uptake (AV),0.2 %ID/g
same,tissue uptake at 168 h,[1]; blood uptake (AV),0.11 %ID/g
same,tissue uptake at 1 h,[1]; femur uptake (AV),0.84 %ID/g
same,tissue uptake at 4 h,[1]; femur uptake (AV),0.89 %ID/g
same,tissue uptake at 24 h,[1]; femur uptake (AV),0.74 %ID/g
same,tissue uptake at 48 h,[1]; femur uptake (AV),0.96 %ID/g
same,tissue uptake at 72 h,[1]; femur uptake (AV),0.87 %ID/g
same,tissue uptake at 120 h,[1]; femur uptake (AV),1.22 %ID/g
same,tissue uptake at 168 h,[1]; femur uptake (AV),1.3 %ID/g
same,tissue uptake at 1 h,[1]; heart uptake (AV),2.47 %ID/g
same,tissue uptake at 4 h,[1]; heart uptake (AV),2.32 %ID/g
same,tissue uptake at 24 h,[1]; heart uptake (AV),1.21 %ID/g
same,tissue uptake at 48 h,[1]; heart uptake (AV),0.94 %ID/g
same,tissue uptake at 72 h,[1]; heart uptake (AV),0.82 %ID/g
same,tissue uptake at 120 h,[1]; heart uptake (AV),0.88 %ID/g
same,tissue uptake at 168 h,[1]; heart uptake (AV),0.83 %ID/g
same,tissue uptake at 1 h,[1]; intestine uptake (AV),0.8 %ID/g
same,tissue uptake at 4 h,[1]; intestine uptake (AV),0.64 %ID/g
same,tissue uptake at 24 h,[1]; intestine uptake (AV),0.58 %ID/g
same,tissue uptake at 48 h,[1]; intestine uptake (AV),0.37 %ID/g
same,tissue uptake at 72 h,[1]; intestine uptake (AV),0.26 %ID/g
same,tissue uptake at 120 h,[1]; intestine uptake (AV),0.19 %ID/g
same,tissue uptake at 168 h,[1]; intestine uptake (AV),0.17 %ID/g
same,tissue uptake at 1 h,[1]; kidneys uptake (AV),9.23 %ID/g
same,tissue uptake at 4 h,[1]; kidneys uptake (AV),21.8 %ID/g
same,tissue uptake at 24 h,[1]; kidneys uptake (AV),43.7 %ID/g
same,tissue uptake at 48 h,[1]; kidneys uptake (AV),59.9 ± 6.46 %ID/g
same,tissue uptake at 72 h,[1]; kidneys uptake (AV),50.1 %ID/g
same,tissue uptake at 120 h,[1]; kidneys uptake (AV),37.6 %ID/g
same,tissue uptake at 168 h,[1]; kidneys uptake (AV),33.7 ± 9.57 %ID/g
same,tissue uptake at 1 h,[1]; liver uptake (AV),2.42 %ID/g
same,tissue uptake at 4 h,[1]; liver uptake (AV),2.45 %ID/g
same,tissue uptake at 24 h,[1]; liver uptake (AV),2.52 %ID/g
same,tissue uptake at 48 h,[1]; liver uptake (AV),3.73 %ID/g
same,tissue uptake at 72 h,[1]; liver uptake (AV),3.39 %ID/g
same,tissue uptake at 120 h,[1]; liver uptake (AV),3.9 %ID/g
same,tissue uptake at 168 h,[1]; liver uptake (AV),4.31 %ID/g
same,tissue uptake at 1 h,[1]; lung uptake (AV),5.67 %ID/g
same,tissue uptake at 4 h,[1]; lung uptake (AV),4.57 %ID/g
same,tissue uptake at 24 h,[1]; lung uptake (AV),2.3 %ID/g
same,tissue uptake at 48 h,[1]; lung uptake (AV),2.75 %ID/g
same,tissue uptake at 72 h,[1]; lung uptake (AV),2.98 %ID/g
same,tissue uptake at 120 h,[1]; lung uptake (AV),7.5 %ID/g
same,tissue uptake at 168 h,[1]; lung uptake (AV),4.95 %ID/g
same,tissue uptake,[1]; maximal uptake in spleen,11.4 ± 2.89 %ID/g
same,tissue uptake at 1 h,[1]; muscle uptake (AV),0.49 %ID/g
same,tissue uptake at 4 h,[1]; muscle uptake (AV),0.58 %ID/g
same,tissue uptake at 24 h,[1]; muscle uptake (AV),0.28 %ID/g
same,tissue uptake at 48 h,[1]; muscle uptake (AV),0.29 %ID/g
same,tissue uptake at 72 h,[1]; muscle uptake (AV),0.2 %ID/g
same,tissue uptake at 120 h,[1]; muscle uptake (AV),0.24 %ID/g
same,tissue uptake at 168 h,[1]; muscle uptake (AV),0.22 %ID/g
same,tissue uptake at 1 h,[1]; pancreas uptake (AV),0.68 %ID/g
same,tissue uptake at 4 h,[1]; pancreas uptake (AV),0.58 %ID/g
same,tissue uptake at 24 h,[1]; pancreas uptake (AV),0.5 %ID/g
same,tissue uptake at 48 h,[1]; pancreas uptake (AV),0.35 %ID/g
same,tissue uptake at 72 h,[1]; pancreas uptake (AV),0.39 %ID/g
same,tissue uptake at 120 h,[1]; pancreas uptake (AV),0.42 %ID/g
same,tissue uptake at 168 h,[1]; pancreas uptake (AV),0.37 %ID/g
same,tissue uptake at 1 h,[1]; spleen uptake (AV),7.11 %ID/g
same,tissue uptake at 4 h,[1]; spleen uptake (AV),6.21 %ID/g
same,tissue uptake at 24 h,[1]; spleen uptake (AV),5.24 %ID/g
same,tissue uptake at 48 h,[1]; spleen uptake (AV),8.33 %ID/g
same,tissue uptake at 72 h,[1]; spleen uptake (AV),10.2 %ID/g
same,tissue uptake at 120 h,[1]; spleen uptake (AV),10 %ID/g
same,tissue uptake at 168 h,[1]; spleen uptake (AV),11.4 %ID/g
same,tissue uptake at 1 h,[1]; stomach uptake (AV),0.98 %ID/g
same,tissue uptake at 4 h,[1]; stomach uptake (AV),0.59 %ID/g
same,tissue uptake at 24 h,[1]; stomach uptake (AV),0.61 %ID/g
same,tissue uptake at 48 h,[1]; stomach uptake (AV),0.4 %ID/g
same,tissue uptake at 72 h,[1]; stomach uptake (AV),0.27 %ID/g
same,tissue uptake at 120 h,[1]; stomach uptake (AV),0.34 %ID/g
same,tissue uptake at 168 h,[1]; stomach uptake (AV),0.27 %ID/g
same,tissue uptake at 1 h,[1]; tumor uptake (AV),3.35 %ID/g
same,tissue uptake at 4 h,[1]; tumor uptake (AV),10.6 %ID/g
same,tissue uptake at 24 h,[1]; tumor uptake (AV),27.6 %ID/g
same,tissue uptake at 48 h,[1]; tumor uptake (AV),57.4 %ID/g
same,tissue uptake at 72 h,[1]; tumor uptake (AV),86.4 %ID/g
same,tissue uptake at 120 h,[1]; tumor uptake (AV),120 %ID/g
same,tissue uptake at 168 h,[1]; tumor uptake (AV),127 %ID/g
same,tumor uptake (AV),[2]; 168 h p.i.,153.48 ± 37.76 %ID/g
same,AUC for tumor accumulation compared to monovalent counterpart,"[2]; mouse, in vivo",almost double
same,AUCTu-to-AUCBl,"[2]; mouse, in vivo",26
same,AUCTu-to-AUCKi,"[2]; mouse, in vivo",1.4
same,AUCTu-to-AUCLi,"[2]; mouse, in vivo",20
same,AUCTu-to-AUCLi ratio compared with monovalent version of the ligand,"[2]; mouse, in vivo",0.7 fold
same,blood clearance: duration of excretion,"[2]; mouse, in vivo",72 h
same,maximal tumor uptake compared to counterpart without dedicated albumin binder,"[2]; mouse, in vivo",twelve times higher
same,AUC Blood,[2]; [3],249 ± 10.4 %ID/g.h
same,AUC Kidneys,[2]; [3],4519 ± 193 %ID/g.h
same,AUC Liver,[2]; [3],328 ± 15.8 %ID/g.h
same,AUC Tumor,[2]; [3],6455 ± 411 %ID/g.h
